In patent publication US20200148787A1 (KYMAB, published 2020):
One block for each binder: values may come before it.

What was measured:
Human factor IX (FIX) = molecular target: T1, Human factor IX (FIX) (human, UniProt P00740 47-461, 12 glutamic acid residues in the GLA domain post-translationally gamma-carboxylated (general description)); assay: SPR Biacore 8K, IgG captured on anti-human IgG Fc, FIX analyte, 25 C, 1:1 fit
T1 construct: mature; Bought reagent, used as SPR analyte
Experimental: An anti-human IgG Fc antibody was immobilised on CM4 chip (GE Healthcare catalog number BR100534) according to manufacturer's instructions. Amine coupling kit (BioRad) was used to activate the surface of the chip. […] The immobilisation run was performed at 25° C. using HBS-EP (10 mM HEPES pH 7.4, 150 mM NaCl, 3 mM EDTA, 0.05% Polysorbate 20 pH 7.6) as immobilisation running buffer.
Purified monospecific antibodies (referred to as ligand) from Example 13 were captured on the anti-human IgG Fc CM4 surface at approximately 2 μg/ml. The ligands were injected for 60 sec at 10 μl/min in all the active channels of all 8 flow channels. The run was performed at 25° C. using neutral pH (pH 7.4) HBS-P 1× (0.01 M HEPES pH 7.4, 0.15 M NaCl, 0.05% Polysorbate 20 pH 7.6)+CaCl₂) 2.5 mM as running buffer. Human factor IX (FIX) (Enzyme Research Laboratories cat n. HFIX 47064) was reconstituted at 1 mg/ml (MW ˜55 KDa) in the running buffer and used as analyte. […] Three injections of 10 mM glycine pH 1.5 for 60 sec at 10 μl/min were used for the regeneration phase.
The association and dissociation data of the interaction were fitted using biomolecular reaction model (1:1 Langmuir model). The values for association rate constant (kₒₙ), dissociation rate constant (koff) and dissociation constant (KD) were calculated from the binding data by BIAevaluation software.

Human Factor X (FX) = Human Factor X (FX) (human, UniProt P00742 41-179; P00742 183-488, limits assumed); assay: SPR Biacore 8K, IgG captured on anti-human IgG Fc, FX analyte, 25 C, 1:1 fit
Experimental: Amine coupling kit (BioRad) was used to activate the surface of the chip. […] The immobilisation run was performed at 25° C. using HBS-EP (10 mM HEPES pH 7.4, 150 mM NaCl, 3 mM EDTA, 0.05% Polysorbate 20 pH 7.6) as immobilisation running buffer.
The run was performed at 25° C. using neutral pH (pH 7.4) HBS-P 1× (0.01 M HEPES pH 7.4, 0.15 M NaCl, 0.05% Polysorbate 20 pH 7.6)+CaCl₂) 2.5 mM as running buffer.

Human Factor X (FX), sequence (P00742 41-179 limits assumed, form in doubt, chain 1 of 2): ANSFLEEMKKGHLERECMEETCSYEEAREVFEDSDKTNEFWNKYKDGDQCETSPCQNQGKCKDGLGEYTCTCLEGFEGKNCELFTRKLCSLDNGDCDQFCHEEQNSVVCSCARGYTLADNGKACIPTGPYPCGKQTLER
Human Factor X (FX), sequence (P00742 183-488 limits assumed, form in doubt, chain 2 of 2): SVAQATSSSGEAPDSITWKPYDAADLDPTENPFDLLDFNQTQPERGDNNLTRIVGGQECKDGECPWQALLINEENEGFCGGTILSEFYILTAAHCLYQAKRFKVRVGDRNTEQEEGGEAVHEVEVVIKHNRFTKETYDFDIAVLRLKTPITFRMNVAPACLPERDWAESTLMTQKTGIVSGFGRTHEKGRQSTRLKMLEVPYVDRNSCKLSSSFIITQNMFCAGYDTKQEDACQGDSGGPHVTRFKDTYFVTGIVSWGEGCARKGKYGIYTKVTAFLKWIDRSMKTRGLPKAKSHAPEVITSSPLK

Kd (Human factor IX (FIX)): 428 nM
koff (Human factor IX (FIX)): 0.031 s⁻¹
kon (Human factor IX (FIX)): 72300 M⁻¹ s⁻¹
B1: N225H_IgG4PE + N128L_IgL (antibody, V domains shown)
VH: EVQLVESGGGFVQPGGSLRLSCAVSGFTFNSYWMSWVRQAPGKGLEWVANINQDGSEKFYVASVKGRFTISRDNAKKSVYLQMNSLRAEDTAVYYCAREGYSSSSYYGMDVWGQGTTVTVSS
VL: SYVLTQPPSVSVAPGETARITCGGDNIGRKSVYWYQQKSGQAPVLVIYYDSDRPSGIPERFSGSNSGNTATLTISRVEAGDEADYYCQVWDGSSDHWVFGGGTKLTVLG
notes: Monospecific IgG4PE with lambda light chain

Kd (Human Factor X (FX)): 3.57 nM
B2: T25H_IgG4PE + T25L_IgK (antibody, V domains shown)
VH: QVQLQESGPGLVKPSETLSLTCTVSGGSISSGIYYWSWIRQHPGKGLEWIGYINNSGNTYYNPSLKGRVNISVDTSKKQFSLKLSSVTDADTAVYYCARGGSGDYWGQGTLVTVSS
VL: EIVLTQSPATLSLSPGERATLSCRTSQSINNYLAWFQQKPGQAPRLLIYDASNRAPGIPARFSGSGSGTDFTLTISSLEPEDFVVYFCQQRNNWPPTFGQGTKVEIKR
notes: Monospecific IgG4PE, kappa; Kappa junction as noted for T14
